Data: the supplement of paper PMC11246515
± gives the standard deviation of the averaged measurements.

Test: total protein half-life in vivo (active degradation + dilution); higher = more stable protein
[1] = E. coli NCM3722 delta-clpP, growth: N-lim chemostat, doubling time 6 h
[2] = E. coli NCM3722 delta-hslV, growth: N-lim chemostat, doubling time 6 h
[3] = E. coli NCM3722 delta-lon, growth: N-lim chemostat, doubling time 6 h
[4] = E. coli NCM3722 delta-smpB, growth: N-lim chemostat, doubling time 6 h
[5] = wild type E. coli NCM3722, growth: C-lim chemostat, doubling time 3 h
[6] = wild type E. coli NCM3722, growth: C-lim chemostat, doubling time 6 h
[7] = wild type E. coli NCM3722, growth: C-lim chemostat, doubling time 12 h
[8] = wild type E. coli NCM3722, growth: N-lim chemostat, doubling time 6 h
[9] = wild type E. coli NCM3722, growth: N-lim chemostat, doubling time 12 h
[10] = wild type E. coli NCM3722, growth: P-lim chemostat, doubling time 6 h
[11] = wild type E. coli NCM3722, growth: P-lim chemostat, doubling time 12 h
[12] = E. coli NCM3722 delta-clpP delta-lon delta-hslV, growth: N-lim chemostat, doubling time 6 h

Sequence | total protein half-life in vivo [1] [h] | total protein half-life in vivo [2] [h] | total protein half-life in vivo [3] [h] | total protein half-life in vivo [4] [h] | total protein half-life in vivo [5] [h] | total protein half-life in vivo [6] [h] | total protein half-life in vivo [7] [h] | total protein half-life in vivo [8] [h] | total protein half-life in vivo [9] [h] | total protein half-life in vivo [10] [h] | total protein half-life in vivo [11] [h] | total protein half-life in vivo [12] [h]
MANKPSAEELKKNLSEMQFYVTQNHGTEPPFTGRLLHNKRDGVYHCLICDAPLFHSQTKYDSGCGWPSFYEPVSEESIRYIKDLSHGMQRIEIRCGNCDAHLGHVFPDGPQPTGERYCVNSASLRFTDGENGEEING [P0A746] | 3.48 ± 0.34 | 3.1 ± 0.16 | 3.91 ± 0.56 | 2.55 ± 0.31 | 1.95 ± 0.59 | 4.02 ± 0.54 | 5.47 ± 0.75 | 3.22 ± 0.13 | 4.64 ± 0.16 | 2.79 ± 0.38 | 6.29 ± 0.15 | 
MANPLYQKHIISINDLSRDDLNLVLATAAKLKANPQPELLKHKVIASCFFEASTRTRLSFETSMHRLGASVVGFSDSANTSLGKKGETLADTISVISTYVDAIVMRHPQEGAARLATEFSGNVPVLNAGDGSNQHPTQTLLDLFTIQETQGRLDNLHVAMVGDLKYGRTVHSLTQALAKFDGNRFYFIAPDALAMPQYILDMLDEKGIAWSLHSSIEEVMAEVDILYMTRVQKERLDPSEYANVKAQFVLRASDLHNAKANMKVLHPLPRVDEIATDVDKTPHAWYFQQAGNGIFARQALLALVLNRDLVL [P0A786] | 4.74 ± 0.28 | 4.54 ± 0.5 | 4.9 ± 0.09 | 5.02 ± 0.63 | 3.22 ± 0.23 | 5.83 ± 0.35 | 10.4 ± 1.8 | 4.75 ± 0.085 | 8.23 ± 1.4 | 5.94 ± 0.21 | 10.7 ± 0.62 | 6.1 ± 1.2
MANSITADEIREQFSQAMSAMYQQEVPQYGTLLELVADVNLAVLENNPQLHEKMVNADELARLNVERHGAIRVGTAQELATLRRMFAIMGMYPVSYYDLSQAGVPVHSTAFRPIDDASLARNPFRVFTSLLRLELIENEILRQKAAEILRQRDIFTPRCRQLLEEYEQQGGFNETQAQEFVQEALETFRWHQSATVDEETYRALHNEHRLIADVVCFPGCHINHLTPRTLDIDRVQSMMPECGIEPKILIEGPPRREVPILLRQTSFKALEETVLFAGQKQGTHTARFGEIEQRGVALTPKGRQLYDDLLRNAGTGQDNLTHQMHLQETFRTFPDSEFLMRQQGLAWFRYRLTPSGEAHRQAIHPGDDPQPLIERGWVVAQPITYEDFLPVSAAGIFQSNLGNETQTRSHGNASREAFEQALGCPVLDEFQLYQEAEERSKRRCGLL | 4.86 ± 2.3 | 3.34 | 3.29 ± 0.28 | 3.09 ± 0.13 | 1.93 ± 0.29 | 3.5 ± 0.098 | 5.086 ± 0.02 | 3.41 ± 0.23 | 4.83 ± 0.42 | 3.15 ± 0.84 | 6.32 ± 0.42 | 4.93 ± 0.48
MANSSSRYSVLTAAHWGPMLVETDGETVFSSRGALATGMENSLQSAVRDQVHSNTRVRFPMVRKGFLASPENPQGIRGQDEFVRVSWDEALDLIHQQHKRIREAYGPASIFAGSYGWRSNGVLHKASTLLQRYMALAGGYTGHLGDYSTGAAQAIMPYVVGGSEVYQQQTSWPLVLEHSDVVVLWSANPLNTLKIAWNASDEQGLSYFSALRDSGKKLICIDPMRSETVDFFGDKMEWVAPHMGTDVALMLGIAHTLVENGWHDEAFLARCTTGYAVFASYLLGESDGIAKTAEWAAEICGVGAAKIRELAAIFHQNTTMLMAGWGMQRQQFGEQKHWMIVTLAAMLGQIGTPGGGFGLSYHFANGGNPTRRSAVLSSMQGSLPGGCDAVDKIPVARIVEALENPGGAYQHNGMNRHFPDIRFIWWAGGANFTHHQDTNRLIRAWQKPELVVISECFWTAAAKHADIVLPATTSFERNDLTMTGDYSNQHLVPMKQVVPPRYEARNDFDVFAELSERWEKGGYARFTEGKSELQWLETFYNVARQRGASQQVELPPFAEFWQANQLIEMPENPDSERFIRFADFCRDPLAHPLKTASGKIEIFSQRIADYGYPDCPGHPMWLEPDEWQGNAEPEQLQVLSAHPAHRLHSQLNYSSLRELYAVANREPVTIHPDDAQERGIQDGDTVRLWNARGQILAGAVISEGIKPGVICIHEGAWPDLDLTADGICKNGAVNVLTKDLPSSRLGNGCAGNTALAWLEKYNGPELTLTAFEPPASS | 3.43 ± 0.21 | 3.62 ± 0.17 | 4.25 ± 0.41 | 3.293 ± 0.026 | 2.4 ± 0.26 | 4.57 ± 0.6 | 7.73 ± 0.2 | 3.56 ± 0.24 | 5.57 ± 0.67 | 3.55 ± 0.4 | 6.319 ± 0.0081 | 4.73 ± 0.25
MANYFIDRPVFAWVLAIIMMLAGGLAIMNLPVAQYPQIAPPTITVSATYPGADAQTVEDSVTQVIEQNMNGLDGLMYMSSTSDAAGNASITLTFETGTSPDIAQVQVQNKLQLAMPSLPEAVQQQGISVDKSSSNILMVAAFISDNGSLNQYDIADYVASNIKDPLSRTAGVGSVQLFGSEYAMRIWLDPQKLNKYNLVPSDVISQIKVQNNQISGGQLGGMPQAADQQLNASIIVQTRLQTPEEFGKILLKVQQDGSQVLLRDVARVELGAEDYSTVARYNGKPAAGIAIKLAAGANALDTSRAVKEELNRLSAYFPASLKTVYPYDTTPFIEISIQEVFKTLVEAIILVFLVMYLFLQNFRATIIPTIAVPVVILGTFAILSAVGFTINTLTMFGMVLAIGLLVDDAIVVVENVERVIAEDKLPPKEATHKSMGQIQRALVGIAVVLSAVFMPMAFMSGATGEIYRQFSITLISSMLLSVFVAMSLTPALCATILKAAPEGGHKPNALFARFNTLFEKSTQHYTDSTRSLLRCTGRYMVVYLLICAGMAVLFLRTPTSFLPEEDQGVFMTTAQLPSGATMVNTTKVLQQVTDYYLTKEKDNVQSVFTVGGFGFSGQGQNNGLAFISLKPWSERVGEENSVTAIIQRAMIALSSINKAVVFPFNLPAVAELGTASGFDMELLDNGNLGHEKLTQARNELLSLAAQSPNQVTGVRPNGLEDTPMFKVNVNAAKAEAMGVALSDINQTISTAFGSSYVNDFLNQGRVKKVYVQAGTPFRMLPDNINQWYVRNASGTMAPLSAYSSTEWTYGSPRLERYNGIPSMEILGEAAAGKSTGDAMKFMADLVAKLPAGVGYSWTGLSYQEALSSNQAPALYAISLVVVFLALAALYESWSIPFSVMLVVPLGVVGALLATDLRGLSNDVYFQVGLLTTIGLSAKNAILIVEFAVEMMQKEGKTPIEAIIEAARMRLRPILMTSLAFILGVLPLVISHGAGSGAQNAVGTGVMGGMFAATVLAIYFVPVFFVVVEHLFARFKKA |  | 5.41 ± 0.53 | 5.03 ± 0.059 |  |  |  |  | 5.55 | 12.5 ± 3.7 | 5.7 ± 0.79 | 12.5 ± 1.6 | 6.822 ± 0.011
